Consider 167 variants from the Human Domainome abundance scans (Beltran et al. 2025).

B1: Transcription factor SOX-11, residues 50 to 117; numbered along this chain, P35716 (parent)
chain: KRPMNAFMVWSKIERRKIMEQSPDMHNAEISKRLGKRWKMLKDSEKIPFIREAERLRLKHMADYPDYK

± gives the uncertainty stated by the source.

The variants in this series derive from B1. Briefly: abundance fitness (aPCA) (normalised: wild type 0, dead -1); higher = more abundant; growth selection in yeast, the domain comes from the species named. The settings on record: Homo sapiens.
As for K32D, the abundance fitness was 0.047 ± 0.059.

As for K32N, the abundance fitness was -0.185 ± 0.061.

For the variant K32V, the abundance fitness was -0.101 ± 0.057.

Consider K32W, for which the abundance fitness was -0.137 ± 0.14.

Take K32E: the abundance fitness was 0.245 ± 0.16.

For K32Q, the abundance fitness is -0.061 ± 0.12.

For K32A, the abundance fitness was determined as 0 ± 0.068.

As to E29L, the abundance fitness is -0.798 ± 0.093.

Consider E29H, for which the abundance fitness is -0.666 ± 0.1.

E29Q: the abundance fitness is -0.517 ± 0.19.

With E29G, the abundance fitness was -0.792 ± 0.076.

Turning to E29K, the abundance fitness is -0.363 ± 0.3.

As to E29C, the abundance fitness was -0.767 ± 0.087.

For E29P, the abundance fitness was -0.866 ± 0.22.

Take E29A: the abundance fitness was -0.436 ± 0.078.

On to E29Y, for which the abundance fitness is -0.969 ± 0.11.

For E29I, the abundance fitness was -0.815 ± 0.095.

As for E29R, the abundance fitness was -1.1 ± 0.13.

Turning to E29T, the abundance fitness was -0.753 ± 0.12.

As to E29S, the abundance fitness is -0.638 ± 0.07.

On to M40Q, for which the abundance fitness was found to be 0.361 ± 0.14.

Consider M40C, for which the abundance fitness is -0.191 ± 0.053.

On to M40T, for which the abundance fitness is -0.05 ± 0.075.

On to M40S, for which the abundance fitness was determined as 0.023 ± 0.048.

Take M40R: the abundance fitness is -0.372 ± 0.072.

As to M40Y, the abundance fitness was -0.383 ± 0.058.

Turning to M40F, the abundance fitness is -0.404 ± 0.065.

For the variant M40I, the abundance fitness is -0.605 ± 0.067.

Turning to M40K, the abundance fitness was 0.29 ± 0.16.

As for M40L, the abundance fitness was determined as 0.011 ± 0.05.

For the variant M40V, the abundance fitness is -0.665 ± 0.069.

Turning to M40D, the abundance fitness was found to be 0.111 ± 0.061.

As to M40P, the abundance fitness was -0.711 ± 0.18.

Turning to M40W, the abundance fitness is -0.503 ± 0.24.

Regarding M40E, the abundance fitness worked out at 0.354 ± 0.19.

Consider M40H, for which the abundance fitness is -0.119 ± 0.062.

Turning to M40N, the abundance fitness was -0.022 ± 0.059.

Consider A28P, for which the abundance fitness was -0.562 ± 0.1.

For the variant A28D, the abundance fitness amounted to 0.205 ± 0.056.

Take A28Y: the abundance fitness was -0.34 ± 0.059.

With A28T, the abundance fitness is -0.134 ± 0.069.

Turning to A28R, the abundance fitness was -0.266 ± 0.056.

As for A28Q, the abundance fitness is -0.247 ± 0.15.

A28W: the abundance fitness was -0.425 ± 0.17.

For the variant A28F, the abundance fitness was -0.47 ± 0.058.

As to A28H, the abundance fitness is -0.183 ± 0.065.

On to A28G, for which the abundance fitness was -0.205 ± 0.053.

As for A28L, the abundance fitness is -0.211 ± 0.066.

Regarding A28C, the abundance fitness is -0.268 ± 0.055.

As to A28E, the abundance fitness is -0.061 ± 0.16.

With A28N, the abundance fitness was -0.24 ± 0.067.

As for A28M, the abundance fitness was -0.529 ± 0.21.

On to A28I, for which the abundance fitness is -0.205 ± 0.053.

Regarding A28K, the abundance fitness is -0.278 ± 0.12.

For M25G, the abundance fitness was -0.759 ± 0.071.

On to M25T, for which the abundance fitness was -0.317 ± 0.089.

As for M25K, the abundance fitness is -0.608 ± 0.18.

For the variant M25S, the abundance fitness is -0.53 ± 0.057.

On to M25F, for which the abundance fitness was -0.571 ± 0.084.

As for M25Y, the abundance fitness is -0.793 ± 0.1.

For the variant M25D, the abundance fitness was -0.717 ± 0.11.

M25P: the abundance fitness is -0.892 ± 0.21.

Turning to M25H, the abundance fitness was -0.641 ± 0.11.

Consider M25C, for which the abundance fitness is -0.34 ± 0.058.

As to M25V, the abundance fitness was -0.278 ± 0.065.

As to M25N, the abundance fitness is -0.418 ± 0.075.

Regarding M25A, the abundance fitness was -0.141 ± 0.072.

As to M25E, the abundance fitness was -0.739 ± 0.23.

With M25Q, the abundance fitness was -0.782 ± 0.21.

For the variant M25W, the abundance fitness is -0.715 ± 0.12.

With M25R, the abundance fitness was -0.546 ± 0.078.

On to I30V, for which the abundance fitness turned out to be 0.039 ± 0.051.

As for I30G, the abundance fitness was -0.67 ± 0.089.

Take I30S: the abundance fitness is -0.682 ± 0.071.

For I30H, the abundance fitness was -0.733 ± 0.097.

On to I30D, for which the abundance fitness is -0.779 ± 0.11.

With I30K, the abundance fitness was -1.09 ± 0.26.

Turning to I30P, the abundance fitness was -0.708 ± 0.13.

For I30Y, the abundance fitness is -0.596 ± 0.065.

For I30R, the abundance fitness was -0.879 ± 0.11.

In the case of I30M, the abundance fitness was -0.711 ± 0.17.

With I30W, the abundance fitness is -0.611 ± 0.14.

With I30N, the abundance fitness was -0.701 ± 0.092.

On to I30Q, for which the abundance fitness is -0.797 ± 0.23.

I30C: the abundance fitness is -0.304 ± 0.053.

Turning to L41C, the abundance fitness was -0.876 ± 0.098.

As for L41Y, the abundance fitness was -0.753 ± 0.08.

In the case of L41W, the abundance fitness was -0.867 ± 0.36.

As for L41P, the abundance fitness was -1.14 ± 0.21.

Consider L41D, for which the abundance fitness is -0.849 ± 0.12.

With L41S, the abundance fitness is -0.604 ± 0.061.

As to L41V, the abundance fitness was -0.53 ± 0.068.

L41H: the abundance fitness was -0.951 ± 0.13.

With L41E, the abundance fitness is -1.04 ± 0.35.

In the case of L41A, the abundance fitness was -0.671 ± 0.099.

Regarding L41R, the abundance fitness is -0.762 ± 0.097.

Consider L41G, for which the abundance fitness is -0.702 ± 0.078.

Turning to L41K, the abundance fitness was -0.666 ± 0.23.

Turning to L41Q, the abundance fitness is -0.721 ± 0.31.

For the variant L41N, the abundance fitness is -0.849 ± 0.11.

In the case of L41F, the abundance fitness was -0.791 ± 0.076.

Consider L41I, for which the abundance fitness is -0.652 ± 0.078.

D43S: the abundance fitness was -0.339 ± 0.055.

In the case of D43F, the abundance fitness is -0.047 ± 0.049.

Regarding D43G, the abundance fitness is -0.402 ± 0.061.

With D43M, the abundance fitness is -0.079 ± 0.11.

Turning to D43V, the abundance fitness was -0.397 ± 0.061.

For D43H, the abundance fitness was -0.129 ± 0.059.

Regarding D43E, the abundance fitness is -0.127 ± 0.11.

As for D43L, the abundance fitness was -0.077 ± 0.052.

Turning to D43K, the abundance fitness is -0.205 ± 0.14.

With D43P, the abundance fitness worked out at 0.009 ± 0.081.

For the variant D43C, the abundance fitness is -0.448 ± 0.066.

For D43I, the abundance fitness was -0.272 ± 0.054.

For S31P, the abundance fitness is -0.855 ± 0.18.

As for S31K, the abundance fitness was -0.096 ± 0.14.

For the variant S31H, the abundance fitness was -0.244 ± 0.084.

S31R: the abundance fitness is -0.311 ± 0.082.

S31A: the abundance fitness was found to be 0.143 ± 0.056.

With S31L, the abundance fitness is -0.2 ± 0.063.

With S31W, the abundance fitness was -0.3 ± 0.12.

Turning to S31E, the abundance fitness came to 0.489 ± 0.11.

Take S31C: the abundance fitness is -0.2 ± 0.074.

Regarding S31F, the abundance fitness is -0.246 ± 0.064.

For S31T, the abundance fitness was 0.029 ± 0.068.

Consider S31G, for which the abundance fitness is -0.278 ± 0.058.

Regarding S31Q, the abundance fitness was -0.213 ± 0.13.

S31N: the abundance fitness was 0.195 ± 0.054.

For the variant S31D, the abundance fitness was determined as 0.176 ± 0.059.

Turning to S31V, the abundance fitness was -0.064 ± 0.051.

For the variant S31M, the abundance fitness is -0.333 ± 0.14.

On to S31Y, for which the abundance fitness is -0.262 ± 0.067.

As for R33N, the abundance fitness is -0.008 ± 0.057.

As for R33A, the abundance fitness was 0.22 ± 0.063.

As for R33K, the abundance fitness was -0.075 ± 0.18.

Consider R33W, for which the abundance fitness was 0.125 ± 0.095.

As for R33T, the abundance fitness came out at 0.367 ± 0.069.

With R33G, the abundance fitness is -0.54 ± 0.08.

On to R33H, for which the abundance fitness is -0.008 ± 0.066.

For the variant R33F, the abundance fitness is -0.001 ± 0.052.

As for R33Y, the abundance fitness was determined as 0.167 ± 0.051.

Consider R33P, for which the abundance fitness is -0.75 ± 0.15.

On to R33E, for which the abundance fitness worked out at 0.343 ± 0.13.

In the case of R33S, the abundance fitness worked out at 0 ± 0.047.

For the variant R33L, the abundance fitness was found to be 0.438 ± 0.056.

With R33Q, the abundance fitness is 0.465 ± 0.13.

With R33D, the abundance fitness was found to be 0.169 ± 0.068.

With R33C, the abundance fitness was 0.178 ± 0.047.

On to H26K, for which the abundance fitness is 0.195 ± 0.1.

On to H26C, for which the abundance fitness amounted to 0.226 ± 0.047.

As to H26W, the abundance fitness was -0.388 ± 0.2.

In the case of H26R, the abundance fitness was -0.106 ± 0.057.

Turning to H26I, the abundance fitness was -0.266 ± 0.059.

Turning to H26G, the abundance fitness came out at 0.22 ± 0.047.

H26S: the abundance fitness turned out to be 0.406 ± 0.041.

For the variant H26D, the abundance fitness amounted to 0.414 ± 0.055.

For the variant H26E, the abundance fitness turned out to be 0.383 ± 0.14.

Regarding H26A, the abundance fitness came to 0.158 ± 0.062.

For H26M, the abundance fitness is -0.194 ± 0.15.

For H26L, the abundance fitness is -0.146 ± 0.054.

As for H26P, the abundance fitness came out at 0.205 ± 0.065.

Turning to H26V, the abundance fitness is -0.283 ± 0.057.

Regarding H26F, the abundance fitness was -0.497 ± 0.062.

Turning to H26N, the abundance fitness was found to be 0.277 ± 0.052.

For the variant H26Q, the abundance fitness turned out to be 0.064 ± 0.095.

Consider H26T, for which the abundance fitness was 0.453 ± 0.058.

With H26Y, the abundance fitness was -0.368 ± 0.059.
